According to patent US11241387B2, “Carrier-binding agent compositions and methods of making and using the same” (Mayo Foundation for Medical Education and Research, priority 2015, dated 2022):

Legend:
ABX = target: T1, ABX (Homo sapiens, UniProt P02768); experiment: Bio-Layer Interferometry (BLItz) binding of antibody to ABX; details: pH 3, 5, 7, 9; BEV also RT, 37° C. and 58° C.
T1 construct: purchased Celgene Corporation, Summit, N.J
Description: The association and dissociation constants were calculated using the BLItz software.

[1] = test system: A375 human melanoma cells; experiment: A375 human melanoma xenograft in athymic nude mice; format: in vivo
Description: In vivo experiments were performed at least 2 times. The number of mice required for those experiments was determined by power analysis. Mouse tumors were measured 2-3 times/week and mice were sacrificed when the tumor was 10% by weight. […] The end point of the mouse studies was median survival. Kaplan-Meier curves were generated and Mantle-Cox test was performed to determine significance of median survival between treatment groups. The in vitro results presented are representative of at least 5 repeated experiments. Statistical analyses of in vitro and in vivo percent change from baseline experiments were done using the Student's t-test.
(§1) To test tumor efficacy, 1×10^6 A375 human melanoma cells were implanted into the right flank of athymic nude mice (Harlan Sprague Dawley, Indianapolis, Ind.). […] Tumor size was monitored 3 times/week and tumor volume was calculated with the following equation: (length×width)/2. Mice were sacrificed when the tumor size equaled 10% of the mouse body weight or about 2500 mm^3. The day 7 percent change from baseline was calculated as follows: [(tumor size on treatment day-tumor size on day 7)/tumor size on treatment day]×100.

CD20 = target: T2, CD20 (Homo sapiens, UniProt P11836); experiment: Blocking of fluorescent anti-CD20 labeling of Daudi cells (flow cytometry); format: binding; details: Daudi cells pretreated prior to CD20 labeling
T2 construct: host or cells: Daudi B-cell lymphoma cells
T2 sequence (P11836 1-297): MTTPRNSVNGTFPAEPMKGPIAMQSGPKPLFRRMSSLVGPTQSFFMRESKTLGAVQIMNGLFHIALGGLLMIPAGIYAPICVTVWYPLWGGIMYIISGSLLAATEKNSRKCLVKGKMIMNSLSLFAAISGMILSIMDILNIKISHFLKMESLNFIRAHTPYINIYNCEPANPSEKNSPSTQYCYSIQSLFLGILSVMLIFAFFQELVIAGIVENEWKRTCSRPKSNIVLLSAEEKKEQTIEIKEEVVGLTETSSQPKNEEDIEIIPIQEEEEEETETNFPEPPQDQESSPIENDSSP
From the text: FIG. 12 depicts the results of an experiment in which CD20 positive Daudi lymphoma cells were labeled with fluorescent tagged anti-human CD20 or isotype matched control in panels F and A, respectively, and analyzed by flow cytometry.
CD20 positive Daudi lymphoma cells were labeled with fluorescent tagged anti-human CD20 or isotype matched control in panel F and A, respectively, and analyzed by flow cytometry.

[2] = test system: Daudi human lymphoma cells; experiment: Daudi xenotransplant model in athymic nude mice; format: in vivo; details: ABX 30 mg/kg, rituximab 12 mg/kg, or AR160
Description: as §1

| Substance | pH and temperature dependence of binding affinity to ABX (ABX) | therapeutic effect on tumor volume ([1]; 12 mg/kg dose) | median survival ([1]; BEV 12 mg/kg, ABX 30 mg/kg, BEV followed by ABX, or AB160) | blocking of CD20 binding of fluorescent anti-CD20 (CD20) | median survival [2] |
| --- | --- | --- | --- | --- | --- |
| bevacizumab | highest binding affinity observed when the particles are formed at pH 5 and 58 °C | not therapeutic | 14 days | – | – |
| rituximab | decreased with higher pH | – | – | specifically blocked | 12 days |
